Results from the supplement of paper PMC9112550, “Optimization of the antimicrobial peptide Bac7 by deep mutational scanning” (BMC Biology, 2022).

Test system: Escherichia coli TOP10
Assay: shrunken log2 fold change of peptide-encoding DNA abundance (4.5 h post-induction vs induction); higher = less antimicrobial activity (less host growth inhibition)
Details: time post-induction: 4.5 h; library: site-saturation at positions 5, 18, 19, 20
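Also: peptides expressed intracellularly from a pBAD plasmid library in pooled LB shake-flask culture, induced with 0.3% L-arabinose, DNA abundance read by NGS, three biological replicates, DESeq2 with apeglm shrinkage.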

| Sequence | shrunken log2 fold change |
| --- | --- |
| RRIRARPPRLPRPRPRPPVTPRP | 0.354 |
| RRIRIRPPRLPRPRPRPWQRPRP | -0.075 |
| RRIRERPPRLPRPRPRPWVYPRP | -0.157 |
| RRIRVRPPRLPRPRPRPQCKPRP | -0.129 |
| RRIRFRPPRLPRPRPRPTKIPRP | 0.359 |
| RRIRRRPPRLPRPRPRPLLTPRP | 0.399 |
| RRIRCRPPRLPRPRPRPKAPPRP | 0.337 |
| RRIRQRPPRLPRPRPRPWGLPRP | 0.211 |
| RRIRYRPPRLPRPRPRPQPRPRP | 0.463 |
| RRIRRRPPRLPRPRPRPVKLPRP | -0.0474 |
| RRIRFRPPRLPRPRPRPSYVPRP | -0.501 |
| RRIRSRPPRLPRPRPRPSIPPRP | -0.458 |
| RRIRVRPPRLPRPRPRPEELPRP | -0.0522 |
| RRIRWRPPRLPRPRPRPTNCPRP | -0.0666 |
| RRIRRRPPRLPRPRPRPRIGPRP | 0.0791 |
| RRIRNRPPRLPRPRPRPPNQPRP | -0.0523 |
| RRIRDRPPRLPRPRPRPNSYPRP | 0.179 |
| RRIRGRPPRLPRPRPRPEIWPRP | 1.34 |
| RRIRYRPPRLPRPRPRPGMKPRP | -0.067 |
| RRIRPRPPRLPRPRPRPMNRPRP | -0.118 |
| RRIRHRPPRLPRPRPRPTQLPRP | 0.278 |
| RRIRVRPPRLPRPRPRPHSEPRP | -0.392 |
| RRIRFRPPRLPRPRPRPWRMPRP | -0.166 |
| RRIRSRPPRLPRPRPRPRKCPRP | 0.149 |
| RRIRSRPPRLPRPRPRPVSFPRP | 0.118 |

| Sequence | shrunken log2 fold change |
| --- | --- |
| RRIRHRPPRLPRPRPRPGAHPRP | -0.457 |
| RRIRMRPPRLPRPRPRPRCIPRP | -0.0309 |
| RRIRHRPPRLPRPRPRPDAPPRP | 2.03 |
| RRIRMRPPRLPRPRPRPNILPRP | 0.057 |
| RRIRNRPPRLPRPRPRPFSAPRP | -0.264 |
| RRIRWRPPRLPRPRPRPLNGPRP | -0.0406 |
| RRIRLRPPRLPRPRPRPGCEPRP | 0.409 |
| RRIRERPPRLPRPRPRPFIEPRP | -0.59 |
| RRIRERPPRLPRPRPRPVFNPRP | -0.329 |
| RRIRQRPPRLPRPRPRPCVYPRP | 4.4 |
| RRIRPRPPRLPRPRPRPLKEPRP | -0.228 |
| RRIRRRPPRLPRPRPRPLPVPRP | 0.373 |
| RRIRPRPPRLPRPRPRPWKHPRP | -0.19 |
| RRIRPRPPRLPRPRPRPGRWPRP | 0.551 |
| RRIRCRPPRLPRPRPRPNGEPRP | -0.0109 |
| RRIRLRPPRLPRPRPRPGHIPRP | -0.197 |
| RRIRKRPPRLPRPRPRPCDCPRP | -0.0743 |
| RRIRKRPPRLPRPRPRPHHAPRP | -0.066 |
| RRIRFRPPRLPRPRPRPCYTPRP | -0.239 |
| RRIRPRPPRLPRPRPRPFTNPRP | -0.286 |
| RRIRMRPPRLPRPRPRPMFRPRP | -0.0348 |
| RRIRARPPRLPRPRPRPWHMPRP | -0.361 |
| RRIRVRPPRLPRPRPRPYFMPRP | -0.797 |
| RRIRTRPPRLPRPRPRPNTEPRP | -0.011 |
| RRIRMRPPRLPRPRPRPKQYPRP | 0.146 |

| Sequence | shrunken log2 fold change |
| --- | --- |
| RRIRARPPRLPRPRPRPHAAPRP | 0.635 |
| RRIRTRPPRLPRPRPRPFSFPRP | -0.341 |
| RRIRGRPPRLPRPRPRPIFGPRP | -0.0743 |
| RRIRQRPPRLPRPRPRPWRHPRP | 0.0151 |
| RRIRNRPPRLPRPRPRPGEYPRP | 0.0536 |
| RRIRGRPPRLPRPRPRPTSAPRP | 0.855 |
| RRIRSRPPRLPRPRPRPYIRPRP | -0.0533 |
| RRIRCRPPRLPRPRPRPDKFPRP | -0.296 |
| RRIRGRPPRLPRPRPRPPAFPRP | 1.09 |
| RRIRQRPPRLPRPRPRPTNLPRP | -0.0248 |
| RRIRNRPPRLPRPRPRPIRFPRP | -0.0225 |
| RRIRYRPPRLPRPRPRPKQVPRP | 0.234 |
| RRIRNRPPRLPRPRPRPEEPPRP | 0.0512 |
| RRIRCRPPRLPRPRPRPEIGPRP | -0.237 |
| RRIRNRPPRLPRPRPRPSGNPRP | -0.315 |
| RRIRFRPPRLPRPRPRPEGYPRP | 0.0525 |
| RRIRPRPPRLPRPRPRPVDAPRP | 0.173 |
| RRIRMRPPRLPRPRPRPHHYPRP | -0.51 |
| RRIRERPPRLPRPRPRPVWKPRP | 0.00515 |
| RRIRMRPPRLPRPRPRPVSAPRP | 0.617 |
| RRIRYRPPRLPRPRPRPCWQPRP | 0.013 |
| RRIRHRPPRLPRPRPRPINQPRP | -0.243 |
| RRIRNRPPRLPRPRPRPIQFPRP | -0.178 |
| RRIRGRPPRLPRPRPRPMWLPRP | 0.25 |
| RRIRYRPPRLPRPRPRPCWTPRP | -0.374 |

| Sequence | shrunken log2 fold change |
| --- | --- |
| RRIRKRPPRLPRPRPRPLPYPRP | -0.0627 |
| RRIRMRPPRLPRPRPRPTAHPRP | 0.767 |
| RRIRFRPPRLPRPRPRPEKCPRP | 0.00859 |
| RRIRSRPPRLPRPRPRPPMCPRP | 0.00128 |
| RRIRTRPPRLPRPRPRPIEGPRP | -0.0197 |
| RRIRIRPPRLPRPRPRPTSKPRP | -0.207 |
| RRIRGRPPRLPRPRPRPHDMPRP | -0.204 |
| RRIRPRPPRLPRPRPRPQKLPRP | -0.0225 |
| RRIRFRPPRLPRPRPRPDEHPRP | -0.0688 |
| RRIRSRPPRLPRPRPRPCDRPRP | -0.00911 |
| RRIRKRPPRLPRPRPRPHHTPRP | -0.254 |
| RRIRVRPPRLPRPRPRPPCWPRP | 0.422 |
| RRIRGRPPRLPRPRPRPEMIPRP | 1.92 |
| RRIRIRPPRLPRPRPRPPHGPRP | -0.0482 |
| RRIRPRPPRLPRPRPRPCMIPRP | -0.692 |
| RRIRERPPRLPRPRPRPESHPRP | -0.0157 |
| RRIRHRPPRLPRPRPRPFAAPRP | -0.0135 |
| RRIRARPPRLPRPRPRPDWHPRP | 0.136 |
| RRIRLRPPRLPRPRPRPCKEPRP | -0.0177 |
| RRIRARPPRLPRPRPRPPGPPRP | 0.703 |
| RRIRNRPPRLPRPRPRPTAEPRP | -0.0644 |
| RRIRLRPPRLPRPRPRPRHSPRP | 0.0207 |
| RRIRFRPPRLPRPRPRPHLCPRP | -0.0692 |
| RRIRQRPPRLPRPRPRPQRCPRP | 0.0862 |
| RRIRGRPPRLPRPRPRPEKAPRP | 0.144 |

| Sequence | shrunken log2 fold change |
| --- | --- |
| RRIRRRPPRLPRPRPRPTRLPRP | 0.612 |
| RRIRQRPPRLPRPRPRPENWPRP | 0.284 |
| RRIRIRPPRLPRPRPRPWAHPRP | -0.923 |
| RRIRNRPPRLPRPRPRPLVEPRP | -0.187 |
| RRIRFRPPRLPRPRPRPCPGPRP | -0.151 |
| RRIRARPPRLPRPRPRPLNVPRP | -0.234 |
| RRIRVRPPRLPRPRPRPYVKPRP | -0.354 |
| RRIRFRPPRLPRPRPRPTMMPRP | -0.0556 |
| RRIRERPPRLPRPRPRPWNSPRP | 0.0019 |
| RRIRSRPPRLPRPRPRPATHPRP | -0.0838 |
| RRIRERPPRLPRPRPRPLPPPRP | 0.124 |
| RRIRERPPRLPRPRPRPIQEPRP | -0.0167 |
| RRIRLRPPRLPRPRPRPTSFPRP | -0.0182 |
| RRIRGRPPRLPRPRPRPRELPRP | 1.31 |
| RRIRLRPPRLPRPRPRPIMDPRP | -0.0403 |
| RRIRERPPRLPRPRPRPPCPPRP | 1.27 |
| RRIRTRPPRLPRPRPRPLVDPRP | -0.143 |
| RRIRTRPPRLPRPRPRPLVAPRP | 0.106 |
| RRIRLRPPRLPRPRPRPENIPRP | -0.519 |
| RRIRTRPPRLPRPRPRPKHLPRP | -0.233 |
| RRIRYRPPRLPRPRPRPTRQPRP | -0.00287 |
| RRIRHRPPRLPRPRPRPKLMPRP | 0.165 |
| RRIRYRPPRLPRPRPRPNNFPRP | -0.418 |
| RRIRARPPRLPRPRPRPKENPRP | 0.379 |
| RRIRHRPPRLPRPRPRPETHPRP | 0.0411 |

| Sequence | shrunken log2 fold change |
| --- | --- |
| RRIRIRPPRLPRPRPRPNASPRP | 0.109 |
| RRIRLRPPRLPRPRPRPPVYPRP | 0.0309 |
| RRIRNRPPRLPRPRPRPDVMPRP | -0.275 |
| RRIRFRPPRLPRPRPRPCQRPRP | -0.124 |
| RRIRARPPRLPRPRPRPRYAPRP | 0.495 |
| RRIRKRPPRLPRPRPRPCRLPRP | -0.298 |
| RRIRRRPPRLPRPRPRPDALPRP | 0.23 |
| RRIRERPPRLPRPRPRPQNCPRP | -0.0646 |
| RRIRIRPPRLPRPRPRPAFTPRP | 0.106 |
| RRIRLRPPRLPRPRPRPKNDPRP | -0.563 |
| RRIRTRPPRLPRPRPRPHILPRP | -0.00363 |
| RRIRARPPRLPRPRPRPMHRPRP | -0.137 |
| RRIRFRPPRLPRPRPRPFRFPRP | -0.129 |
| RRIRNRPPRLPRPRPRPPTQPRP | 0.267 |
| RRIRYRPPRLPRPRPRPPSDPRP | -0.185 |
| RRIRRRPPRLPRPRPRPYPFPRP | -0.238 |
| RRIRVRPPRLPRPRPRPIFEPRP | 0.149 |
| RRIRCRPPRLPRPRPRPMYMPRP | -0.143 |
| RRIRRRPPRLPRPRPRPAGYPRP | -0.269 |
| RRIRHRPPRLPRPRPRPICDPRP | -0.174 |
| RRIRFRPPRLPRPRPRPWIIPRP | -0.00565 |
| RRIRHRPPRLPRPRPRPIMEPRP | -0.545 |
| RRIRMRPPRLPRPRPRPQRGPRP | 1.24 |
| RRIRQRPPRLPRPRPRPVKSPRP | 0.169 |
| RRIRHRPPRLPRPRPRPGRGPRP | 0.529 |
